Results on 1 molecule are retold here after article PMC12570964 (Nature Microbiology, 2025).

The assay concerns the target T1, mouse IFIT3 (M. musculus Ifit3, co-expressed with Ifit2 in E. coli) (M. musculus, UniProt Q64345 8-389).
T1 construct: also called interferon-induced protein with tetratricopeptide repeats 3
T1 sequence: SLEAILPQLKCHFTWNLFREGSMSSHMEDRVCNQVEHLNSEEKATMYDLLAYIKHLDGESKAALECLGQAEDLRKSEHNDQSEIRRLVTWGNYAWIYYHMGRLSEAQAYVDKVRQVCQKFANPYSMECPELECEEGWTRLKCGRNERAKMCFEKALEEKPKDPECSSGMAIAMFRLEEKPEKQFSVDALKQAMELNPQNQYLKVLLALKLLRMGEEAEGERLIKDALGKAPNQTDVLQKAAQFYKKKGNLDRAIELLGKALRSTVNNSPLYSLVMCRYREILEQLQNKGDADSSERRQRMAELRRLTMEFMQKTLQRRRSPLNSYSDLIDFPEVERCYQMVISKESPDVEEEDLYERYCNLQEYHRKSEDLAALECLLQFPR
Put plainly: cryo-EM structure. The conditions noted are these: both partners purified.

B1: mouse IFIT2 (M. musculus Ifit2, co-expressed with Ifit3 in E. coli) (natural protein, UniProt Q64112 1-472, looked up)
chain: MSTTSKESLVCNLRQLKCHFTWNLIAEDESLDEFEDRVFNKDEFQNSEFKATMCNILAYVKHCRGLNEAALQCLGEAEGFIQQQHPDQVEIRSLVTWGNYAWVYYHMGQFSKAQAYLDKVKQVCKKFSSPYRIENPALDCEEGWARLKCTKNQNERVKVCFQKALEKDPKNPEFTSGWAIAFYRLDDWPARNYCIDSLEQAIQLSPDNTYVKVLLALKLDAVHVHKNQAMALVEEALKKDPSAIDTLLRAARFYCKVYDTDRAIQLLRKALEKLPNNAYVHYYMGCCYRSKVHHMLNRREMVFSGDRKKLEELIQLAVNHLRKAEEIKEMLEYSCSFLADLYIIAKKYDEADYYFQKELSKDLPPGPKQLLHLRYGNFQFFQMKRQDKAIYHYMEGVKIKKKTIPQKKMREKLQRIALRRLHEDESDSEALHILAFLQENGGGQQADKDSERGVDSANQVPSASLDEDGAEY
notes: also called interferon-induced protein with tetratricopeptide repeats 2; source: E. coli Rosetta pLysS, co-expressed with Ifit3, purified (nickel column, TEV cleavage, Superdex 200 size exclusion)
Consider B1, for which the “stoichiometry N” value worked out at 1.
